Measured values as given in patent US20060252692A1, “Inhibitors for use in hemostasis” (ZymoGenetics, Inc., priority 2002, published 2006).

What was measured:
[1] = tested on: CCC4 osteoblast cell line, serum response element (SRE) luciferase; assay: SRE-luciferase assay in CCC4 osteoblast cell line; assay type: cell-based, mice; conditions: 1000 ng/ml zsig37, four hours
Protocol: Zsig37 polypeptides were assayed in a high throughput, in vitro assay to identify substances that selectively activate cellular responses in immortalized osteoblast cell lines. A mature osteoblast cell line derived from p53−/− (deficient) mice, CCC4, that is transfected with a plasmid containing an inducible serum response element (SRE) driving the expression of luciferase was used in the assay. These cells also express endogenous PTH, PDGF and bFGF receptors.
CCC4 lines were trypsinized and adjusted to 5×10^4 cells/ml in plating medium (alpha-MEM, 1% heat inactivated fetal bovine serum, 1 mM Na pyruvate and 2 mM L-glutamate) and plated (200 μl/well) into Dynatech Microlite opaque white microtiter plates (Dynatech, Chantilly, Va.) and incubated overnight at 37° C., 5% CO2. The growth medium was then aspirated and replaced with 50 μl/well assay medium (F-12 HAM, 0.5% bovine serum albumin, 20 mM HEPES, 1 mM sodium pyruvate and 2 mM L-glutamate). […] Fifty microliters/well of luciferase substrate (Luciferase Assay Reagent, E1501, Promega Corp.) was added and the Luciferase activity was detected using a Labsystems LUMINOSKAN at 2 second/well following a one second delay. The average basal (uninduced) signal was subtracted from readings as a percentage of the maximal induction produced by 3 ng/ml bFGF. […]

[2] = target: T1, collagen type VI (Homo sapiens, UniProt P12109+P12110+P12111); assay: Quantitative ELISA binding to collagen type VI; conditions: Zsig37-FITC 0.4 to 4 μg/ml, 10 μg collagen type VI
T1 construct: purchased Chemicon International; Temecula, Calif
T1 sequence (P12109 20-1028): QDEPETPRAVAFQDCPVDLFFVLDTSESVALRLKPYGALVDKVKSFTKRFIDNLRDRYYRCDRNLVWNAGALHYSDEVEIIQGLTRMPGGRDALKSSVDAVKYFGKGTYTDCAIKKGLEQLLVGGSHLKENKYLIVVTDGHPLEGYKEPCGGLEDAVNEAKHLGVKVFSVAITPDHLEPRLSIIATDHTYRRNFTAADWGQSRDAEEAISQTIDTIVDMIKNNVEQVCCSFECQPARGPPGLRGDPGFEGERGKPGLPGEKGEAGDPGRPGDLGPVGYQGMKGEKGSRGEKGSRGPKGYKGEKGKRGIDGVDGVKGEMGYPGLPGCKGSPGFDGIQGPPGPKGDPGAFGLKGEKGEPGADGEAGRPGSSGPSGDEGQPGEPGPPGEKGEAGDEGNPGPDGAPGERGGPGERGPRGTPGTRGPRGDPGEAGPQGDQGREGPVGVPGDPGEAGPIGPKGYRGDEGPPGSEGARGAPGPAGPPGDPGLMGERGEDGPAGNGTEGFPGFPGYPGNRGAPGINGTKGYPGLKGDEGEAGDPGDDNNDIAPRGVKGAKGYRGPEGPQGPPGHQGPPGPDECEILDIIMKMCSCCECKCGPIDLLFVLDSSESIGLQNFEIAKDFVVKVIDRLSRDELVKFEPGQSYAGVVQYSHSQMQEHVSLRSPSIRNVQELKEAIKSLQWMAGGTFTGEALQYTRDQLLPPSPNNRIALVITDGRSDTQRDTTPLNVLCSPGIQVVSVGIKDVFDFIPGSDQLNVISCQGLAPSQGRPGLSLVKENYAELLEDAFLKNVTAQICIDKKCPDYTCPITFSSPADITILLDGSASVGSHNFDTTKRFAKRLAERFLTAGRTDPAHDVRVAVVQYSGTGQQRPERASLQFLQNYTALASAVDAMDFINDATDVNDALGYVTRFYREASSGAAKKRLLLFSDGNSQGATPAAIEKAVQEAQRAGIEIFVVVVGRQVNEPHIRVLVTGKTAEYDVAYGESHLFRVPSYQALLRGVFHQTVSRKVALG
T1 sequence (P12110 21-1019): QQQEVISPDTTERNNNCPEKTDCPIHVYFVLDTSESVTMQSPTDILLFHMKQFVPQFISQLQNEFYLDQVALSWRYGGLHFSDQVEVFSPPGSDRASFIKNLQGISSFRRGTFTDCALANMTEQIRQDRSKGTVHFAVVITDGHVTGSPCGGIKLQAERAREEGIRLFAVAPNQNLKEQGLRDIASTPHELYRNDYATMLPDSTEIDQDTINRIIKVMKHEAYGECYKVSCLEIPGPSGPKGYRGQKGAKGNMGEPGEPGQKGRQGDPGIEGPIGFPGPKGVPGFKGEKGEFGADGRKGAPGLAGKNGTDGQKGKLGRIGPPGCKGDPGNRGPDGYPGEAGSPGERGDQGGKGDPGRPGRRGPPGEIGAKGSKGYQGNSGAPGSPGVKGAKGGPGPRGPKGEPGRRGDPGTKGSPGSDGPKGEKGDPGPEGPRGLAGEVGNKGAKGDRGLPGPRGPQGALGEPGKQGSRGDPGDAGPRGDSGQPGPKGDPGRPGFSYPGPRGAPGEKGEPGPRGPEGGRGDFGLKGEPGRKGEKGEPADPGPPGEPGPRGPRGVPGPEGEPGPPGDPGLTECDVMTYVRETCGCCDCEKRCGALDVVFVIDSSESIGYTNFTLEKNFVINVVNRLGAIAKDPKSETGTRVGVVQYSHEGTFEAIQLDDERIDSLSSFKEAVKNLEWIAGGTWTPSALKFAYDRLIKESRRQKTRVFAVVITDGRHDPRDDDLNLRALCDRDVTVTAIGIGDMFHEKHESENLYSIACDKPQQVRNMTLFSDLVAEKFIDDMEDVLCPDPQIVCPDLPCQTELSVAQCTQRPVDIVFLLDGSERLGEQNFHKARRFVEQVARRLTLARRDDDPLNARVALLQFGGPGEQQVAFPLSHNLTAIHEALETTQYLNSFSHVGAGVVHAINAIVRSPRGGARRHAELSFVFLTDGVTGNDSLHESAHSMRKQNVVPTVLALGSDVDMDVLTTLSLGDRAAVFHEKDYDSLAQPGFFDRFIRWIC
T1 sequence (P12111 26-3177): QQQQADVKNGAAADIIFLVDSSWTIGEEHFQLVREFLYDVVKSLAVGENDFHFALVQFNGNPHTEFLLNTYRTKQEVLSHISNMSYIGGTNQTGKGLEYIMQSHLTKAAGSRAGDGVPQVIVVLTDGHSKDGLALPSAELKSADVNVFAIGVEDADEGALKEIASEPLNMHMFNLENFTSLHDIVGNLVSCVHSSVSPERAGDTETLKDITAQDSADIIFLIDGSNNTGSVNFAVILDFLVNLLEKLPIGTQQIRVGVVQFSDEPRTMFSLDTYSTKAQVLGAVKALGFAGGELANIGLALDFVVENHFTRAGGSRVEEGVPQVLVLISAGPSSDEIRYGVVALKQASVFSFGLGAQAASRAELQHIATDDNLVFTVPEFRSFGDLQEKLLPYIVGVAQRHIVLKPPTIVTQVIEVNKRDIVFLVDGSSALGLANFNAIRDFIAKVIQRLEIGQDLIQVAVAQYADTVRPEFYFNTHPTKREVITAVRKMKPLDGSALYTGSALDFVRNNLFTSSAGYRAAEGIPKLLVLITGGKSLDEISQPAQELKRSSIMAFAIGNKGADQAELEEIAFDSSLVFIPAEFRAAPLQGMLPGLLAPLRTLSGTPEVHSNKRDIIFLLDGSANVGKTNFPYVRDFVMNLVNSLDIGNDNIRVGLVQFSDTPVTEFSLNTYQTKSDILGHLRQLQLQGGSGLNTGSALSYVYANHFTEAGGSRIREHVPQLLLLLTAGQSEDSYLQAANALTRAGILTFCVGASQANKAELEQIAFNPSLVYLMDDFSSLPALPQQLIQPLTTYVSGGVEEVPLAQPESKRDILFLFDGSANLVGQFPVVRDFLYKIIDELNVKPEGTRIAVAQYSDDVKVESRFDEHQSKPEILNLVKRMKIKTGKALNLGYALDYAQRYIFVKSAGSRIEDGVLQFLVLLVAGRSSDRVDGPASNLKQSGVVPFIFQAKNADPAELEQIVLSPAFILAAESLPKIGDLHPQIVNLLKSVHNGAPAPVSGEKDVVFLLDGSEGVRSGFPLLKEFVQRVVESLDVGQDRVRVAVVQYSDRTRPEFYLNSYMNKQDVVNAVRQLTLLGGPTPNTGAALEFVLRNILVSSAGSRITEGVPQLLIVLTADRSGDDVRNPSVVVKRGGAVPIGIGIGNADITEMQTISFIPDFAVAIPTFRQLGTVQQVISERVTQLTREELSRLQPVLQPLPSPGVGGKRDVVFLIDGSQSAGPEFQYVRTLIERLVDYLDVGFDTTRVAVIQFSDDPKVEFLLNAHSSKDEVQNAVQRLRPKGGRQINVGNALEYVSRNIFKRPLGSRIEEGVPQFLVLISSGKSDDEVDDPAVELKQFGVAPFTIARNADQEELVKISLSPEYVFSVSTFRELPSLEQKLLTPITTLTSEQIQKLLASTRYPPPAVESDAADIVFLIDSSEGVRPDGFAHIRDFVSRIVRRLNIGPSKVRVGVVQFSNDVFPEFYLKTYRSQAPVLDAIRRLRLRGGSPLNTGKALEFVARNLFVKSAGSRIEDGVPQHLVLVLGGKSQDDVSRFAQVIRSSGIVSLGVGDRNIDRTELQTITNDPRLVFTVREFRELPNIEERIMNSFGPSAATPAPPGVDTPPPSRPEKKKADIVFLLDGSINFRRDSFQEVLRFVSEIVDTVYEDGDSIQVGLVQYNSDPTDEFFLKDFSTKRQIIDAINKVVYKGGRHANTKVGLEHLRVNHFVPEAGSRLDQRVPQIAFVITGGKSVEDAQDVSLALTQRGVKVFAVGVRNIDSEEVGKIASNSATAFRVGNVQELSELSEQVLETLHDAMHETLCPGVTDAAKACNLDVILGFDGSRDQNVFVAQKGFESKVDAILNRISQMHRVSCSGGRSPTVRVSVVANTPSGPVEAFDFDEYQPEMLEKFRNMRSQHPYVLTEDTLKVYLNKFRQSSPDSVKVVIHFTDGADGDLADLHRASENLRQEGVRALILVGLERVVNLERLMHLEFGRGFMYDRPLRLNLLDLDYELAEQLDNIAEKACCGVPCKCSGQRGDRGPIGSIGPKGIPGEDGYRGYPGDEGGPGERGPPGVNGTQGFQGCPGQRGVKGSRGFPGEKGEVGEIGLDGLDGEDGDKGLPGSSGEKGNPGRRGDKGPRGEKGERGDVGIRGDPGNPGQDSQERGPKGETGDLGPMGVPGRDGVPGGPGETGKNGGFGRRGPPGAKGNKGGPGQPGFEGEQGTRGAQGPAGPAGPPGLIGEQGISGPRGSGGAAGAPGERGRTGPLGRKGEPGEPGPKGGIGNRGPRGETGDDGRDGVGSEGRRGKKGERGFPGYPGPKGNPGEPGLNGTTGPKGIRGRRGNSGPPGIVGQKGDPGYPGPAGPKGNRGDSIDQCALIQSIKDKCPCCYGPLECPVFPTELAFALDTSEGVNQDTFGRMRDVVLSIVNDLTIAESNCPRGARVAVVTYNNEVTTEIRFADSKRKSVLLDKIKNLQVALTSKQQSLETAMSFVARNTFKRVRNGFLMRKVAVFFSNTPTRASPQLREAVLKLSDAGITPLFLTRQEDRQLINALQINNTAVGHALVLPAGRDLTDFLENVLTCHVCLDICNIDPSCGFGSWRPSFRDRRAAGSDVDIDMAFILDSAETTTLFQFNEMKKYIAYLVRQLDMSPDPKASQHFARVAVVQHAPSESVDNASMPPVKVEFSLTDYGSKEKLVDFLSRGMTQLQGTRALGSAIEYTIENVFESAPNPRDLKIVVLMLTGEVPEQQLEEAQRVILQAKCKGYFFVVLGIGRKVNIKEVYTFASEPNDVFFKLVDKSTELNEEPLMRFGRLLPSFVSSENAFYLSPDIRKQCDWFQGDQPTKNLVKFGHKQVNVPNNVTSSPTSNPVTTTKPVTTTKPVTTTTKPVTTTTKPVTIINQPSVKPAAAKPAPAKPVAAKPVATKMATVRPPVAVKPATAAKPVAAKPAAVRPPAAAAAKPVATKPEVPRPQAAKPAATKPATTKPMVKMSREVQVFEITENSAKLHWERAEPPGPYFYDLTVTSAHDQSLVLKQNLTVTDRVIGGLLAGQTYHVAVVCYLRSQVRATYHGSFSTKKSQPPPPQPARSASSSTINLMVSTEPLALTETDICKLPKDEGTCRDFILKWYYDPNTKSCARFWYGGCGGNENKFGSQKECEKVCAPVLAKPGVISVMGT
Protocol: An ELISA (Enzyme-linked Immunosorbant Assay) was used to measure binding of zsig37 to complement C1q, and to the following matrix proteins: Bovine Collagen Type I (Becton Dickinson; Lincoln Park, N.J.), laminin, vitronectin, fibronectin, human collagen Types II, III, IV, V, VI (Chemicon International; Temecula, Calif.). BSA V (Sigma Chemical Co.) was used as a negative control. Just prior to use, the proteins were diluted in 2× PBS (Phosphate Buffered Saline, Sigma Chemical Co.) to 100 μg/ml and adjusted to pH 7.2 with 0.1 N NaOH. Each protein sample was plated in quadruplicate (100 μl/well) into a 96 well plate. The plate was allowed to dry overnight in a laminar flow hood and washed three times with 400 μl of 5 mg/ml BSA in 1× PBS and blotted dry. Zsig37 was FITC labeled according to manufacturer's instruction (Pierce; Rockford, Ill.). Into each well was added 100 μl of 1.8 μg/ml zsig37-FITC in 5% BSA, PBS. The plates were incubated for 1.5 hours at room temperature then washed 3 time with 5% BSA, PBS. To each well was then added 100 μl of 1:400 mouse anti-FITC/Biotin (Sigma Chemical Co.). […]
The ELISA assay for binding, described above, was modified to quantitatively evaluate binding. […] The luminescence from the SUPERSIGNAL reagent was read on a Wallac 1420 plate reader (Wallac; Gaithersburg Md.) and the intensity used as a quantitative measure of the zsig37-FITC bound to the ELISA plate.

[3] = tested on: platelet rich thrombus formation induced by vascular injury; assay: Platelet rich thrombus formation induced by vascular injury (Folts Model); assay type: in vivo, cynomolgus monkeys; conditions: remained open
Protocol: The effect of zsig37 on platelet rich thrombus formation induced by vascular injury (Folts Model) was also tested with cynomolgus monkeys. In the absence of treatment, blood flow in the vessels decreased to zero flow, indicating an occlusion of the artery. In contrast, cynomolgus monkeys that received the vascular injury and were treated with 1.0 mg/kg zsig37 had vessels that were fully patent by 20 minutes following treatment and remained open. When cynomolgus monkeys received the vascular injury and were treated with 0.5 mg/kg zsig37, their vessels were fully patent by 30 minutes following treatment and then remained open.

[4] = tested on: serotonin-contracted rat aortic sections; assay: Relaxation of serotonin-induced rat aortic ring contractions; parameters: species or system Sprague-Dawley rats
Protocol: Male, Sprague-Dawley rats, approximately 3 months of age, were lightly anesthetized with CO2 and then decapitated. The thoracic aorta was then rapidly removed and placed in a modified Kreb's-Henseleit buffer (NaCl, 118.2 mM; KCl, 4.6 mM; CaCl2, 2.5 mM; MgSO4, 1.2 mM; NaHCO3, 24.8 mM; KH2PO4, 1.2 mM; and glucose, 10.0 mM). From each rat, four 2-3 mm aortic ring sections were cut after discarding the rough end of the aorta. In some experiments the endothelium was denuded, prior to cutting ring sections, by rubbing the lumen of the aorta along a 21 gauge needle. Denudation of the endothelium was verified by the addition of the acetylcholine analogue, carbachol, prior to determining zsig37 concentration-dependent responses.
The rings were fixed and connected to force displacement transducers in oxygenated (95% O2, 5% CO2), jacketed, glass organ baths kept at 30° C. in modified Kreb's-Henseleit buffer, pH 7.4. Resting tension was set at 1 gm, and continually re-adjusted to 1 gm over a one-hour incubation period. Fresh oxygenated modified Kreb's-Henseleit buffer was added to the baths every fifteen minutes during the resting incubation period. At the end of the one-hour incubation, the ring sections were contracted by the addition of 10 μM serotonin. After maximum contraction had been reached, approximately 15-20 minutes after the addition of the serotonin, cumulative concentration response curves for zsig37 were constructed. Zsig37 was added to 5 ml baths in volumes from 5 up to 150 μls, for final concentrations ranging from 1 ng/ml up to 40 μg/ml. Viability of the ring sections was verified at the end of the concentration response by the addition of forskolin (2.5 μM or 25 μM) or nitroglycerin (22 μM).

B1: zsig37: adipocyte complement related protein homolog, polypeptide of SEQ ID NO:2, inhibits collagen-mediated platelet activation and the complement pathway (protein, listed as Homo sapiens)
chain: MGSRGQGLLLAYCLLLAFASGLVLSRVPHVQGEQQEWEGTEELPSPPDHAERAEEQHEKYRPSQDQGLPASRCLRCCDPGTSMYPATAVPQINITILKGEKGDRGDRGLQGKYGKTGSAGARGHTGPKGQKGSMGAPGERCKSHYAAFSVGRKKPMHSNHYYQTVIFDTEFVNLYDHFNMFTGKFYCYVPGLYFFSLNVHTWNQKETYLHIMKNEEEVVILFAQVGDRSIMQSQSLMLELREQDQVWVRLYKGERENAIFSEELDTYITFSGYLVKHATEP
For B1, the “luciferase expression as percentage of the maximal induction produced by 3 ng/ml bFGF” value [1] was 73 to 75%, the “binding curve to collagen type VI” value [2] was “fits a typical hyperbolic binding curve” and the “time to fully patent vessels following treatment” value ([3]; 0.5 mg/kg) was ≤ 30 min. For the same molecule, the “time to fully patent vessels following treatment” value ([3]; 1.0 mg/kg) was ≤ 20 min, the “time to plateau of relaxation response after addition” value [4] was 3 to 5 min and the “time to relaxation after addition of each concentration” value [4] was 30 to 60 s. The “concentration at which relaxation was first observed” value ([4]; 10 μM serotonin) was “above 100 ng/ml” and the “vasorelaxation of serotonin-contracted aortic sections” value ([4]; 10 μM serotonin, with and without an intact endothelium, 1 ng/ml up to 40 μg/ml) was “concentration-dependent vasorelaxation”.
